The series deals with T1, MS2 coat protein (fluorescently labelled) (MS2 virus) (UniProt P03612).
T1 sequence: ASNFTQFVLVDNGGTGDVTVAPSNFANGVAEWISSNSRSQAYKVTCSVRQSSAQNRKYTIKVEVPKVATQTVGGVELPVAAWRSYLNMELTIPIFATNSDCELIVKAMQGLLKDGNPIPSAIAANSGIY
The series can be described thus: RNA-MaP. Particulars: RNA-MaP on MiSeq chip: MS2 protein 0.7-1,500 nM, incubation 0.8-1.5 h (lowest concentrations) to 10-20 min (highest), buffer and temperature per ref. 14, not ….

“AGUCCACGCUGACGUGGACAAAAGCAUGUACAUGAGGAUCACCCAUGUCAUGUACAAGCUUUUUGCUCGUCUUAAAA” came in with a binding signal (200 nM input RNA S1 (on state), scale: fold) of 110.

Sequence “CCGAAAACGGGAACCUUAUUCUUUAUGCAUGUUCAGGAAACUGAGCAUGCAAACAUGAGGAUCACCCAUGUGUUGUGGGAUCAGC [6348262 C85 G11 Eli Fisker mod (ratio sensor, top R2)]” gave a binding signal (fold (qARLB, off Kd / on Kd)) of 11.

In the case of “GAUUACGAGAGUGUUAUUCUUUGGAGUGGGACAUGAGGAUCACCCAUGUAAAUGUACAUGUUAGCUGCUUAGCAGUUGACAUGAU [6248647 U62 jandersonlee mod (ratio sensor, top R3)]”, the binding signal (fold (qARLB, off Kd / on Kd)) is 34.

These data come from paper PMC12669046.
